Patent US20210238276A1 (INTEGRAL MOLECULAR, published 2021)

T1: mouse GLUT4 (mmGLUT4) (mouse, UniProt P14142 1-509)
T1 construct: whole, on cells; Also tested as endogenous protein in murine 3T3-L1 adipocytes; also called endogenous GLUT4 of 3T3-L1 adipocytes
T1 sequence (looked up): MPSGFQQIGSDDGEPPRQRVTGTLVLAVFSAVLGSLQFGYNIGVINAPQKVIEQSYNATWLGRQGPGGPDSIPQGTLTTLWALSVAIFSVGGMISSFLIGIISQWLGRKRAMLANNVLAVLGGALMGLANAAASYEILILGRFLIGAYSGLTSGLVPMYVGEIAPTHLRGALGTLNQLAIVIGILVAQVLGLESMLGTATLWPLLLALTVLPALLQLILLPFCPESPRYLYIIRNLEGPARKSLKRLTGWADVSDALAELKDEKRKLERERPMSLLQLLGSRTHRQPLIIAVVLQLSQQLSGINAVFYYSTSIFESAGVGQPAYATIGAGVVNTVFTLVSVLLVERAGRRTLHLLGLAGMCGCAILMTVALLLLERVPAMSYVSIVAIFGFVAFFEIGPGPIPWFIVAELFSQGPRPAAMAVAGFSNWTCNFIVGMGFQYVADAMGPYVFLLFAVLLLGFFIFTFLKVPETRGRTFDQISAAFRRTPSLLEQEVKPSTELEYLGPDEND

T2: mouse GLUT1 (mmGLUT1) (mouse, UniProt P17809 1-492)
T2 construct: whole, on cells
T2 sequence (looked up): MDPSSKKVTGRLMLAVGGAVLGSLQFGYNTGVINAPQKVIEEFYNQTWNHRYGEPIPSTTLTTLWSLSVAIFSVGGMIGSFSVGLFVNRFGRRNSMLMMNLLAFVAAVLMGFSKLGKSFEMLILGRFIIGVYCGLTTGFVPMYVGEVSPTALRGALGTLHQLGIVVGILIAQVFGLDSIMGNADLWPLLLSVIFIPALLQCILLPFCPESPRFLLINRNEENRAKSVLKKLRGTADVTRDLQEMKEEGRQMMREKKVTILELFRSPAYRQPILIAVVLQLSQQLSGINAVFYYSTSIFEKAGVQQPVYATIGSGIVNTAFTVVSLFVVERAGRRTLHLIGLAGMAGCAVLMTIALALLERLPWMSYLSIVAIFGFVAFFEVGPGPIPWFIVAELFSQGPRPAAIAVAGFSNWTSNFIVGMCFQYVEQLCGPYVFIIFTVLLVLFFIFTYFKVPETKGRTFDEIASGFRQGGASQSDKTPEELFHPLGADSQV

T3: human GLUT1 (hsGLUT1) (human, UniProt P11166 1-492)
T3 construct: whole, on cells
T3 sequence (looked up): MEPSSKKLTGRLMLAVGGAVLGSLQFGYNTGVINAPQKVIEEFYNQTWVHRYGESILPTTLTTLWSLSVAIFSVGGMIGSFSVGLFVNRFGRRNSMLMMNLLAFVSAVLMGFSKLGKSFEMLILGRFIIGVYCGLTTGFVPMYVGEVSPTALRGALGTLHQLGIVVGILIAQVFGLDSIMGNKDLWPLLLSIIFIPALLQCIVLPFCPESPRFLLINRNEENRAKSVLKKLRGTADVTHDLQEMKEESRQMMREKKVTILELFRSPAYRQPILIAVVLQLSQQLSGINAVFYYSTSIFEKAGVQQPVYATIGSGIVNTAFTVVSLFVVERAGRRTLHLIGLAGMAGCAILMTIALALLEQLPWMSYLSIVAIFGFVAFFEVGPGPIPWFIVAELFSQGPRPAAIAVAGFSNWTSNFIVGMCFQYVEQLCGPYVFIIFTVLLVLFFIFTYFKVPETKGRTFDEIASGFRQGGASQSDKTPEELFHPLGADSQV

B1: AB105 (Fc fusion)
scFv: ALTQPSSVSANPGETVEITCSGDSSYYGWYQQKSPGSAPVTVIYANTNRPSDIPSRFSGSASGSTATLTITGVQAEDEAVYYCGSADSTYAGIFGAGTTLTVLGQSSRSSGGGGSSGGGGSAVTLDESGGGLQTPGGALSLICKASGFTFSSYTMNWVRQAPGKGLEWVGVISNSGRTTNYGAAVQGRATISRDNGQSTVRLQLNNLRAEDTGTYYCAKSSASASCAWWAGRSYPCSANRIDAWGHGTEVIVSS
notes: Bivalent scFv-Fc; also called MAb AB105; not shown: Fc fragment of human IgG1, cloned in frame with the scFv
B2: AB111 (Fc fusion)
scFv: ALTQPSSVSANPGETVKITCSGSGSWYGWFQQKSPGSAPVTVIYSNDKRPSDIPSRFSGSKSGSTSTLTITGVQVEDEAVYYCGNWDIFGAGTTLTVLGQSSRSSGGGGSSGGGGSAVTLDESGGGLQTPGGALSLVCKASGFTFSSHGMGWVRQAPGKGLEWVASISTGRYTFYAPAVKGRATISRDNGQSTVRLQLNNLRAEDTATYYCTKCAGLNGCGGGEIDAWGHGTEVIVSS
notes: Bivalent scFv-Fc; also called MAb AB111; not shown: Fc fragment of human IgG1, cloned in frame with the scFv
B3: AB102 (Fc fusion)
scFv: ALTQPSSVSANLGGTVKITCSGGGSYGYGWYQQKSPGSAPVTVIYSNDQRPSDIPSRFSGSKSGSTATLTITGVRAEDEAIYYCGSTDSDYVGIFGAGTTLTVLGQSSRSSGGGGSSGGGGSAVTLDESGGGLQTPGGTLSLVCKASGFDFSSYATIWVRQAPGKGLEWVAGISGTGTGSSTGYAPAVKGRATISRDNGQSTVRLQLNNLRAEDTGSYFCAKSTGYGDSWIYPDSIDAWGHGTEVIVSS
notes: also called MAb AB102; not shown: Fc fragment of human IgG1, cloned in frame with the scFv

Assays:
mouse GLUT4 (mmGLUT4) [1] = molecular target: T1, mouse GLUT4 (mmGLUT4); test: immunofluorescence, surface of 3T3-L1 adipocytes (data not shown)
Procedure: (§1) Adipocytes, between 7-8 days post-differentiation, were serum-starved for 3 hours in Dulbecco's modified Eagle's medium with […] bicarbonate and 20 mM HEPES pH 7.4, prior to stimulation for 20 minutes at 37° C. with or without 170 nM human insulin (Sigma Aldrich) prepared in the same media with 2% BSA. Adipocytes were washed twice with ice-cold PBS with calcium and magnesium (PBS+/+) and remained on ice for all subsequent steps.
(§2) Adipocytes were blocked with 10% Normal Goat Serum (NGS) in PBS+/+ for 30 minutes on ice before adding test antibodies at 10 ug/ml in 10% NGS. Primary antibodies were incubated for 2 hours, then washed 2× with PBS+/+. Cells were subsequently fixed for 5 minutes in 4% paraformaldehyde (PFA), washed 2× with PBS+/+, and then stained with secondary antibody (AF488 conjugated Goat anti-human, Jackson Immunoresearch) diluted 1:200 in 10% NGS. Secondary antibody was incubated for 1 hour, after washing 3× with PBS+/+. For intracellular staining, cells were fixed prior to the blocking step and permeabilized with 10% NGS containing 0.2% Saponin. The 1F8 antibody was used at 1 μg/ml, and detected using AF647-conjugated goat anti-mouse secondary antibody diluted 1:400 (Jackson Immunoresearch). Alexafluor 488 was visualized using the B-2EC cube with an exposure time of 1.5 seconds. Alexafluor 647 was visualized using the Cy5 cube with an exposure time of 2 seconds.

mouse GLUT4 (mmGLUT4) [2] = molecular target: T1, mouse GLUT4 (mmGLUT4); test: immunofluorescence, permeabilized 3T3-L1 adipocytes (data not shown)
Procedure: as §1, §2

mouse GLUT1 (mmGLUT1) = molecular target: T2, mouse GLUT1 (mmGLUT1); test: flow cytometry, permeabilized transfected HEK-293T
Procedure: (§3) HEK-293T cells were transfected by CaPO₄ with plasmids in 6-well culture plates (Falcon) at 750,000 cells/well. At 48 hours post transfection, cells were stained with anti-V5 and anti-GLUT4 MAbs (purified scFv, 2 μg/ml) followed by biotinylated goat anti-mouse or human antibody (1:500) and streptavidin-PerCP (1:500). Fluorescence was detected using an Intellicyt high-throughput flow cytometer (HTFC; Intellicyt, Albuquerque, N. Mex.). For cell permeabilization, cells were treated with saponin at 0.1% in PBS for 20 minutes. To discriminate intact (live) and permeabilized (dead) cells without the use of detergent, propidium iodide (PI) was added to HEK-293T cells at 1 ug/ml just prior to flow cytometry. Where indicated, cytochalasin B (Sigma) was used at a final concentration of 10 uM and phloretin (Sigma) was used at a final concentration of 100 uM, each added in 10% NGS for 30 minutes prior to antibody staining as well as included with the primary antibody.

human GLUT1 (hsGLUT1) = molecular target: T3, human GLUT1 (hsGLUT1); test: flow cytometry, permeabilized transfected HEK-293T
Procedure: as §3

Row | Binder | binding result (mouse GLUT4 (mmGLUT4) [1]) | binding result (mouse GLUT4 (mmGLUT4) [2]) | binding result (mouse GLUT1 (mmGLUT1)) | binding result (human GLUT1 (hsGLUT1))
1 | B1 | binds |  |  | 
2 | B2 |  | binds |  | 
3 | B3 |  | binds | binds | binds
